This note sets out measurements from patent US20240158497A1 (published 2024).

The target in test [1] is T1, Macaca Fascicularis GP130 extracellular domain expressed with a C-terminal myc-myc-hexahistidine tag (Macaca fascicularis, UniProt P40189 23-619 (human entry)).
T1 construct: also called mfGP130-MMH; mfGP130-mmH
T1 chain: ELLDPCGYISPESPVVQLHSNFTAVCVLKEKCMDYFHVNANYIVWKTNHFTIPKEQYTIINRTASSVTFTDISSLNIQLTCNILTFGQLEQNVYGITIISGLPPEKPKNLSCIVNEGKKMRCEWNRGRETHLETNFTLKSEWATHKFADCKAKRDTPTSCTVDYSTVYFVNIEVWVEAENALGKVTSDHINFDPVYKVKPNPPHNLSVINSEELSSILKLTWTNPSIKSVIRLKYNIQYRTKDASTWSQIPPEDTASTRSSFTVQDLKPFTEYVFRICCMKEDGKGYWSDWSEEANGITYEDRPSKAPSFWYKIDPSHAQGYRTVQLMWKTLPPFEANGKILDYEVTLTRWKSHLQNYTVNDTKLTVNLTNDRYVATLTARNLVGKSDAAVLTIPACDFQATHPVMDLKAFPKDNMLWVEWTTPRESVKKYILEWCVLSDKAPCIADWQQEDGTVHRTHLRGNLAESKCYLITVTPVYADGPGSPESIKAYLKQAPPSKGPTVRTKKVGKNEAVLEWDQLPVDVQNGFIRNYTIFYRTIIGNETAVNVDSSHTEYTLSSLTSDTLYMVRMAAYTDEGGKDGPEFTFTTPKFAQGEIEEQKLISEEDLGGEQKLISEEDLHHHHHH
As to the kind of experiment: SPR, bsAb captured by anti-hFc, 25C. The protocol: (§1) Equilibrium dissociation constants (KD values) for LEPR and GP130 binding to purified anti-LEPR/GP130 bispecific antibodies were determined using a real-time surface plasmon resonance biosensor using a Biacore 4000 instrument. All binding studies were performed in 10 mM HEPES, 150 mM NaCl, 3 mM EDTA, and 0.05% v/v Surfactant Tween-20, pH 7.4 (HBS-ET) running buffer at 25° C. and 37° C. The Biacore sensor surface was first derivatized by amine coupling with a monoclonal mouse anti-human Fc antibody (GE, #BR-1008-39) to capture anti-LEPR/GP130 bispecific antibodies. […] Different concentrations of LEPR or GP130 reagents were first prepared in HBS-ET running buffer (100 nM-3.7 nM; 3-fold serial dilution) and were injected over anti-human Fc captured anti-LEPR/GP130 bispecific antibody surface for 4 minutes at a flow rate of 30 μL/minute, while the dissociation of bispecific antibody bound LEPR or GP130 reagent was monitored for 10 minutes in HBS-ET running buffer. Kinetic association (kₐ) and dissociation (kd) rate constants were determined by fitting the real-time binding sensorgrams to a 1:1 binding model with mass transport limitation using Scrubber 2.0c curve-fitting software. Binding dissociation equilibrium constants (KD) and dissociative half-lives (t ½) were calculated from the kinetic rate constants as: […]

In test [2] the target is T2, human GP130 extracellular domain expressed with a C-terminal myc-myc-hexahistidine tag (human, UniProt P40189 23-619).
T2 construct: also called hGP130-MMH; hGP130-mmH
As to the kind of experiment: SPR, bsAb captured by anti-hFc, 25C. The protocol:
as §1

The target of test [3] is T1, Macaca Fascicularis GP130 extracellular …. As to the kind of experiment: SPR, bsAb captured by anti-hFc, 37C. The method, then:
as §1

Test [4] addresses T2, human GP130 extracellular domain …. As to the kind of experiment: SPR, bsAb captured by anti-hFc, 37C. The method, then:
as §1

B1: bsAb19151D (bispecific antibody, V domains shown)
VH 1: QVQLVESGGGVVQPGRSLRLSCTASGFTFSSYAMYWVRQAPGKGLEWVSVIYYDGSYKYYADSVKGRFTISRDNSKNTLYLQMDSLRAEDTAVYYCASYNWNYWYFDFWGRGTLVTVSS
VH 2: EVQLVESGGGLVQPGGSLRLSCAASGFTFSSYAMNWVRQAPGKGLEWVSAISGSGDSTYYTDSVKGRFTISRDNSKNTLYLQMNTLRAEDTAVYYCAKEEIVMLVGATPGWFDPWGQGTLVTVSS
VL: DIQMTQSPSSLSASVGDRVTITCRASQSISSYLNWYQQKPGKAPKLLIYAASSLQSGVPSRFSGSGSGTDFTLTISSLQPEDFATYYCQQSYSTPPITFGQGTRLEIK
notes: LEPR x GP130 bispecific with common light chain
Regarding B1, in test [1], the “100 nM mfGP130-MMH Bound (RU)” value stood at 3 RU and the binding result was “no binding (tested: 100 nM)”. For the same molecule, in test [2], the “100 nM hGP130-MMH Bound (RU)” value was determined as 9 RU, binding was characterised by a dissociation constant (Kd) of 10.5 nM, the koff was 0.000221 s⁻¹ and the kon turned out to be 21100 M⁻¹ s⁻¹. The t½ in test [2] worked out at 52 min. The “100 nM mfGP130-MMH Bound (RU)” value in test [3] is 6 RU. Also, in test [4], the “100 nM hGP130-MMH Bound (RU)” value was 16 RU, the Kd was 16.6 nM, the koff came out at 0.000373 s⁻¹ and the kon is 22400 M⁻¹ s⁻¹. In test [4], this molecule registered a t½ of 31 min.

B2: bsAb19152D (bispecific antibody, V domains shown)
VH 1: QVQLVESGGGVVQPGRSLRLSCTASGFTFSSYAMYWVRQAPGKGLEWVSVIYYDGSYKYYADSVKGRFTISRDNSKNTLYLQMDSLRAEDTAVYYCASYNWNYWYFDFWGRGTLVTVSS
VH 2: EVQLVQSGAEVKKPGESLKISCKGSGYSFTSYWIDWVRQMPGKGLEWMGIIYPDDSDTRYSPSFQGQVTMSVDKSISTAYLQWSSLKASDTAIYYCARHERGIVEAGTDYYYYYGMDVWGQGTTVTVSS
VL: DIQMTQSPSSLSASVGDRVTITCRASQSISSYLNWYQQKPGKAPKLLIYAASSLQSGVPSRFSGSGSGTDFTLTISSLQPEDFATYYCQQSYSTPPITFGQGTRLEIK
notes: as for B1
On to B2, for which, in test [1], the “100 nM mfGP130-MMH Bound (RU)” value was found to be 52 RU, the Kd came to 18.8 nM, the koff turned out to be 0.00553 s⁻¹ and the kon is 295000 M⁻¹ s⁻¹. In test [1], this molecule registered a t½ of 2.1 min. In test [2], the “100 nM hGP130-MMH Bound (RU)” value is 35 RU, the Kd was found to be 57.4 nM, the koff stood at 0.0113 s⁻¹ and the association rate constant (kon) was 196000 M⁻¹ s⁻¹. In test [2], this molecule returned a t½ of 1 min. Besides, in test [3], the “100 nM mfGP130-MMH Bound (RU)” value worked out at 51 RU, binding was characterised by a dissociation constant (Kd) of 51.6 nM, the koff amounted to 0.0177 s⁻¹ and the kon is 342000 M⁻¹ s⁻¹. The t½ in test [3] was found to be 0.7 min. Moreover, in test [4], the “100 nM hGP130-MMH Bound (RU)” value is 28 RU; the affinity, expressed as Kd, was 89.1 nM; the koff worked out at 0.0363 s⁻¹; the kon came to 407000 M⁻¹ s⁻¹. The same molecule had a t½ in test [4] of 0.3 min.

B3: bsAb19153D (bispecific antibody, V domains shown)
VH 1: QVQLVESGGGVVQPGRSLRLSCTASGFTFSSYAMYWVRQAPGKGLEWVSVIYYDGSYKYYADSVKGRFTISRDNSKNTLYLQMDSLRAEDTAVYYCASYNWNYWYFDFWGRGTLVTVSS
VH 2: QVQLVQSGAEVMKPGASVKVSCRASGYTFSSYDINWVRQAPGQGLEWMGWISTATGNTNYPQKVQGRVTMTTDTSTNTAYMELRSLRSDDTAVYYCTREGNSKGWLDPWGQGTLVTVSS
VL: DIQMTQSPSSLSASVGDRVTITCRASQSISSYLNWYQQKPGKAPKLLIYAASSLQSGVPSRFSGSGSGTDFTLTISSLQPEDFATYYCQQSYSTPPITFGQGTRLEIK
notes: as for B1
Regarding B3, in test [1], the “100 nM mfGP130-MMH Bound (RU)” value amounted to 23 RU, binding was characterised by a dissociation constant (Kd) of 1.73 nM, the koff came out at 0.000396 s⁻¹ and the kon came out at 229000 M⁻¹ s⁻¹. Besides, the t½ in test [1] came to 29 min. Besides, in test [2], the “100 nM hGP130-MMH Bound (RU)” value came out at 24 RU, the Kd worked out at 1.62 nM, the koff came to 0.000419 s⁻¹ and the kon stood at 258000 M⁻¹ s⁻¹. Also, the t½ in test [2] is 28 min. For the same molecule, in test [3], the “100 nM mfGP130-MMH Bound (RU)” value turned out to be 32 RU, binding was characterised by a dissociation constant (Kd) of 4.33 nM, the koff was found to be 0.00123 s⁻¹ and the kon was 284000 M⁻¹ s⁻¹. In test [3], the t½ is 9 min. In test [4], the “100 nM hGP130-MMH Bound (RU)” value turned out to be 33 RU, the Kd is 3.95 nM, the off-rate constant (koff) was 0.00126 s⁻¹ and the kon stood at 319000 M⁻¹ s⁻¹. Moreover, the t½ in test [4] amounted to 9 min.
